Reference: patent publication US20250276080A1 (Amgen, published 2025)
Where no end group is shown, it is not given here. [ ]: non-standard residue; d: D form. Aib = CC(C)(N)C(=O)O

Columns and labels:
Assay in all cases: cell-based or functional assay
human glucagon receptor [1] = biological target: human glucagon receptor (human, UniProt P47871 26-477)
Target sequence in this assay (P47871 26-477): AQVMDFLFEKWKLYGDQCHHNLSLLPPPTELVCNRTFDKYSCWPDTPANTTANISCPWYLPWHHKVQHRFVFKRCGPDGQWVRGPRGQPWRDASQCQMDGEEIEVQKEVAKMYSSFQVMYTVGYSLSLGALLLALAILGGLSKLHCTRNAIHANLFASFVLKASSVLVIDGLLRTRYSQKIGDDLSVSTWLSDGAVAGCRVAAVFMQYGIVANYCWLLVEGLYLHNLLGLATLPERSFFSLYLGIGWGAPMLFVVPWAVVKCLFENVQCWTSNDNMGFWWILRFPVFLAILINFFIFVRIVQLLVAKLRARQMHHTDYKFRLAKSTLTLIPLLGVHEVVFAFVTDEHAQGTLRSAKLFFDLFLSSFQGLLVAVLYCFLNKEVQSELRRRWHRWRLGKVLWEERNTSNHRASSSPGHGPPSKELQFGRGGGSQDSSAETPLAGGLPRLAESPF

[2] = biological target: human glucagon-like peptide-1 receptor (human, UniProt P43220 24-463)
human glucagon receptor [3] = biological target: human glucagon receptor (human, UniProt P47871 26-477); remark: listed apart in the source
Target sequence in this assay (P47871 26-477): as above

human GLP-1 receptor = human GLP-1 receptor (human, UniProt P43220 24-463)

| Binder | hGCGR EC50 (pM) (human glucagon receptor [1]) | hGLP-1R EC50 (pM) [2] | hGCGR EC50 (pM) (human glucagon receptor [3]) | hGLP-1R EC50 (pM) (human GLP-1 receptor) |
| --- | --- | --- | --- | --- |
| Conjugate 25435: Fc SEFL2 T487C-15997 (other, not fully specified; also: thioether at chain A 139 to a chain's N-terminus via acetyl, bond at chain B 28 to a chain's C-terminus) chain 1: DKTHTCPPCPAPELLGGPSVFLFPPKPKDTLMISRTPEVTCVVVDVSHEDPEVKFNWYVDGVEVHNAKTKPCEEQYGSTYRCVSVLTVLHQDWLNGKEYKCKVSNKALPAPIEKTISKAKGQPREPQVYTLPPSREEMCKNQVSLTCLVKGFYPSDIAVEWESNGQPENNYKTTPPVLDSDGSFFLYSKLTVDKSRWQQGNVFSCSVMHEALHNHYTQKSLSLSPGK peptide: H[dS]QGTFTSDYSKYLD[Aib]RRAQDFVQWLLKT chain 2: Ac-GSPAPAPAPAPAPAPAPAPAPASGG | 9.1 pM | 9770 pM | – | – |
| Conjugate 40741: aGIPR 5G12 SEFL2 E384C-39903 (other, N-term acetyl-thioether to Cys; d-Ser2; K28 eps-NH linked to linker C-term; C276 conjugated to linker) heavy: QVQLVESGGGVVQPGRSLRLSCTASGFTFSSYGIHWVRQAPGKGLEWVAVIWYDGSNKFHADSVKGRFTISRDNSKNTLYLQMNSLRAEDSAMYFCARGKVAGMPEAFEIWGQGTKVTVSSASTKGPSVFPLAPSSKSTSGGTAALGCLVKDYFPEPVTVSWNSGALTSGVHTFPAVLQSSGLYSLSSVVTVPSSSLGTQTYICNVNHKPSNTKVDKKVEPKSCDKTHTCPPCPAPELLGGPSVFLFPPKPKDTLMISRTPEVTCVVVDVSHEDPCVKFNWYVDGVEVHNAKTKPCEEQYGSTYRCVSVLTVLHQDWLNGKEYKCKVSNKALPAPIEKTISKAKGQPREPQVYTLPPSREEMTKNQVSLTCLVKGFYPSDIAVEWESNGQPENNYKTTPPVLDSDGSFFLYSKLTVDKSRWQQGNVFSCSVMHEALHNHYTQKSLSLSPGK light: DIQLTQSPSSLSASVGDRVTITCRASQTISRFLNWYQQKPGKAPELLIYVASSLQSGVPSRFSGSGSGTDFTLTISSLQPEDFATYYCQQSYSTLISFGQGTKLEITRTVAAPSVFIFPPSDEQLKSGTASVVCLLNNFYPREAKVQWKVDNALQSGNSQESVTEQDSKDSTYSLSSTLTLSKADYEKHKVYACEVTHQGLSSPVTKSFNRGEC peptide: HSQGTFTSDYSKYLDQRRAQDFVQWLLKT GSPAPAPAPAPAPAPAPAPAPASGG | 40.9 pM | 8020 pM | – | – |
| Conjugate 88013: aGIPR 5G12 SEFL2 E384C-87021 (other, N-terminus conjugated to heavy-chain Cys; K28 side chain amide-linked to linker C-terminus; C276 conjugated to linker) heavy: QVQLVESGGGVVQPGRSLRLSCTASGFTFSSYGIHWVRQAPGKGLEWVAVIWYDGSNKFHADSVKGRFTISRDNSKNTLYLQMNSLRAEDSAMYFCARGKVAGMPEAFEIWGQGTKVTVSSASTKGPSVFPLAPSSKSTSGGTAALGCLVKDYFPEPVTVSWNSGALTSGVHTFPAVLQSSGLYSLSSVVTVPSSSLGTQTYICNVNHKPSNTKVDKKVEPKSCDKTHTCPPCPAPELLGGPSVFLFPPKPKDTLMISRTPEVTCVVVDVSHEDPCVKFNWYVDGVEVHNAKTKPCEEQYGSTYRCVSVLTVLHQDWLNGKEYKCKVSNKALPAPIEKTISKAKGQPREPQVYTLPPSREEMTKNQVSLTCLVKGFYPSDIAVEWESNGQPENNYKTTPPVLDSDGSFFLYSKLTVDKSRWQQGNVFSCSVMHEALHNHYTQKSLSLSPGK light: DIQLTQSPSSLSASVGDRVTITCRASQTISRFLNWYQQKPGKAPELLIYVASSLQSGVPSRFSGSGSGTDFTLTISSLQPEDFATYYCQQSYSTLISFGQGTKLEITRTVAAPSVFIFPPSDEQLKSGTASVVCLLNNFYPREAKVQWKVDNALQSGNSQESVTEQDSKDSTYSLSSTLTLSKADYEKHKVYACEVTHQGLSSPVTKSFNRGEC peptide: HSQGTFTSDYSKYLDAKRAQEFVEWLLKS GGGGSGGGGSPAPAPAPAPAPASGG | – | – | 41.3 pM | – |

Further lines, results first:

| hGCGR EC50 (pM) (human glucagon receptor [1]) | hGLP-1R EC50 (pM) [2] | hGCGR EC50 (pM) (human glucagon receptor [3]) | hGLP-1R EC50 (pM) (human GLP-1 receptor) | Binder |
| --- | --- | --- | --- | --- |
| – | – | 127 pM | 289 pM | Conjugate 92868: aGIPR 5G12 SEFL2 E384C-92840 (other, N-terminus conjugated to heavy-chain Cys; d-Ser2; K28 side chain amide-linked to linker C-terminus; C276 conjugated to linker) heavy: QVQLVESGGGVVQPGRSLRLSCTASGFTFSSYGIHWVRQAPGKGLEWVAVIWYDGSNKFHADSVKGRFTISRDNSKNTLYLQMNSLRAEDSAMYFCARGKVAGMPEAFEIWGQGTKVTVSSASTKGPSVFPLAPSSKSTSGGTAALGCLVKDYFPEPVTVSWNSGALTSGVHTFPAVLQSSGLYSLSSVVTVPSSSLGTQTYICNVNHKPSNTKVDKKVEPKSCDKTHTCPPCPAPELLGGPSVFLFPPKPKDTLMISRTPEVTCVVVDVSHEDPCVKFNWYVDGVEVHNAKTKPCEEQYGSTYRCVSVLTVLHQDWLNGKEYKCKVSNKALPAPIEKTISKAKGQPREPQVYTLPPSREEMTKNQVSLTCLVKGFYPSDIAVEWESNGQPENNYKTTPPVLDSDGSFFLYSKLTVDKSRWQQGNVFSCSVMHEALHNHYTQKSLSLSPGK light: DIQLTQSPSSLSASVGDRVTITCRASQTISRFLNWYQQKPGKAPELLIYVASSLQSGVPSRFSGSGSGTDFTLTISSLQPEDFATYYCQQSYSTLISFGQGTKLEITRTVAAPSVFIFPPSDEQLKSGTASVVCLLNNFYPREAKVQWKVDNALQSGNSQESVTEQDSKDSTYSLSSTLTLSKADYEKHKVYACEVTHQGLSSPVTKSFNRGEC peptide: HSQGTFTSDYSKYLDEKRAREFVEWLLKS GGGGSGGGGSPAPAPAPAPAPASGG |
| – | – | 152 pM | 6750 pM | Conjugate 91659: aGIPR 5G12 SEFL2 E384C-91255 (other, N-terminus conjugated to heavy-chain Cys; d-Ser2; K28 side chain amide-linked to linker C-terminus; C276 conjugated to linker) heavy: QVQLVESGGGVVQPGRSLRLSCTASGFTFSSYGIHWVRQAPGKGLEWVAVIWYDGSNKFHADSVKGRFTISRDNSKNTLYLQMNSLRAEDSAMYFCARGKVAGMPEAFEIWGQGTKVTVSSASTKGPSVFPLAPSSKSTSGGTAALGCLVKDYFPEPVTVSWNSGALTSGVHTFPAVLQSSGLYSLSSVVTVPSSSLGTQTYICNVNHKPSNTKVDKKVEPKSCDKTHTCPPCPAPELLGGPSVFLFPPKPKDTLMISRTPEVTCVVVDVSHEDPCVKFNWYVDGVEVHNAKTKPCEEQYGSTYRCVSVLTVLHQDWLNGKEYKCKVSNKALPAPIEKTISKAKGQPREPQVYTLPPSREEMTKNQVSLTCLVKGFYPSDIAVEWESNGQPENNYKTTPPVLDSDGSFFLYSKLTVDKSRWQQGNVFSCSVMHEALHNHYTQKSLSLSPGK light: DIQLTQSPSSLSASVGDRVTITCRASQTISRFLNWYQQKPGKAPELLIYVASSLQSGVPSRFSGSGSGTDFTLTISSLQPEDFATYYCQQSYSTLISFGQGTKLEITRTVAAPSVFIFPPSDEQLKSGTASVVCLLNNFYPREAKVQWKVDNALQSGNSQESVTEQDSKDSTYSLSSTLTLSKADYEKHKVYACEVTHQGLSSPVTKSFNRGEC peptide: HSQGTFTSDYSKYLDEKRAQEFVEWLLKS GGGGSGGGGSPAPAPAPAPAPASGG |
